# Measured values: paper PMC2119551
# Molecular target: aFGF receptors on the surface of NBT-II cells (rat (endogenous in NBT-II))
# Experiment: radioligand binding
substance,measurement,value
Human recombinant acidic FGF (from UniProt P05230 1-155) (ligand),cpm bound (cells preincubated with 100 ng/ml pertussis toxin),11800 cpm
same,cpm bound (cells preincubated with 10 ug/ml cholera toxin),13600 cpm
same,cpm bound (cells preincubated with 100 uM forskolin),14300 cpm
same,cpm bound (untreated cells),12700 cpm
